Results taken from the DeepSol protein solubility set.

Assay: soluble on expression in E. coli; label from the status in PepcDB or PDB records

Q: With “MSLTILELTFATNQLTTTFFNHKLEPLHQKTFPFEALTIEETVPELCQLILAEAAPILGGIVADFPADFFSPEETLALVPQAVIQAFAEQLNTPLLTAAEQAAAPNLLEAFEEKRQYLAWHLDYYGYVPGKNEYAVESLLTVGNGFLGLRGTTPEMTISDDHYPATYIAGLYNTAASEVAGQVVENEDFVNAPDNQHIALKIGDATDWLTISPDTLQQLHRQLNLKTGLFVAEMILKDADNQQIKLTTKKIANMAQPNDYHLQYTFEPLNFSAPITLKTVTDGSVYNYNVARYRNLTAKHFQVTALSAQENKTVIEVCTNQSNLSVRETSLITGDFFEKEAITIQEEAEKIAQVVTVMAHQGTRYTLEKQVFVQASHAEQSWQVPFTPKDSFAAAAQESARAWQTLWQQANITVTGDLMSQKLLRIHSYHLLASASPFSNQAQALDVSITARGLHGEAYRGHIFWDEIFILPFYIQHYPDTAKQLLLYRYHRLEKAKENAAASQYRGAMYPWQSGRDGRETTQKLHLNPLNGHWGEDHSILQRHVSLAIAYNAWLYWHSTQDHEFMKQYGGEMLLEIAQFWNSAATLDDATGRFFIDKVMGPDEFHEGYPDQAESGLKNNAYTNLMVVWLFEELTNILALFSEEEQAQLFAKTQTTSADLARMQQIQNSLEIEVNSDGIIAQYEGYFGLKEIDWTAMKEKYGNIYRMDRILKAEGESPDDYKVAKQADTLMLFYNLDKTRVDQILEDLGYQLPADYLEKNLLYYLKRTSHGSTLSRIVHAQLAEMAQFHELSWQLYQEALYSDYRDIQGGTTAEGIHTGVMAATIHVTLATYAGVDTRQNELSICPNLPEHWQALAFQFIHQGVTYQFSLTQTSVTITADRDTQLLVQGALIPLTAERPKEVHYQEGHHHHHH” as the sequence, how does the “soluble on expression in E. coli” value read?
A: soluble

Q: For “MVDYDKQMKTWIRSQHLICVGSDFIFETVDQTQLDKFETCIRGMGGRIRTVKAVGNWPMGPRRSFKILQATASVPRPGGEALVTYWAKKGSKTTRYSEISS”, which “soluble on expression in E. coli” value is on record?
A: soluble

Q: For “MSLRPVPSGQDPIKVVHYSDIHVDQLYTEGSNAKCNKPICCRQVKIIRHTHKSWTDFSRPFTENDEPGKTDSPAGPFGEHTCDSPVSLEHSMYQAIKEIVPDASFTIFTGDVVDHSIWNTTWDYNKHQIIESYENMDKHLGIVYGTAGNHESHPTNAYQPSSIGGASSWIYDLLAGAWSRWIGHEAASKAAQIGAYSTKFPHGNLRVISLNTNLYYRGNFWLFQRKMIRDPSKQFDWLIEELHAAEKAGERVYIIGHMPPGDRNAFHDQSNYLNQIVNRYSSTIAAMFFGHTHRDHFQITYSEAPKKSFSNALLTSYVGPSLTPTSGMPSFRVYDVDPITFAVLDATTYSADMNSPTYQTQGPVWKKYYSAKETYGEGHHHHHH”, which “soluble on expression in E. coli” value is on record?
A: not soluble

Q: Which “soluble on expression in E. coli” value does the source give for “MLETYDWNNKLTYLKNTRDLYYNDDYVSFLVNTVWKITKPVHIVDYGCGYGYLGLVLMPLLPEGSKYTGIDSGETLLAEARELFRLLPYDSEFLEGDATEIELNDKYDIAICHAFLLHMTTPETMLQKMIHSVKKGGKIICFEPHWISNMASYLLDGEKQSEFIQLGVLQKLFESDTQRNGKDGNIGMKIPIYLSELGVKNIECRVSDKVNFLDSNMHHNDKNDLYQSLKEEGIAGDPGDKQQFVERLIARGLTYDNALAQYEAELRFFKALHLHSSLVYAPNMKITFGEIECMAGDPLEHHHHHH” here?
A: soluble

Q: For “MGSDKIHHHHHHMKETWISERRMIQLPGLTIDRHISAPNELEFPGCKYHLLCILLSDHNQQKMTRIGEQESQKSQAKGDFWICPAKMSGIWSWNSTDESLTFVIDPLFLSRMAEEVGELNESKVELLSTVNAHDPQIEAIARLFQAEFDTGGLGGHLYAESLIQVLIVHLLRQYCAFSPKIKPDVGSMPNNRLQPVFDYIHSYLDRPLLLAELAEISGISQYYFCRLFKQSMGVAPYQYVLQQRMEKAKELLHQRKYAIAEIALLVGCADQSRFTRHFKKYVGVTPRMFLSKK”, which “soluble on expression in E. coli” value is on record?
A: not soluble

Q: Which “soluble on expression in E. coli” value does the source give for “MGSDKIHHHHHHMNKANTVDTSTEAVERVAKEISGLASREAVSMIQGWEDAFELYLKAADQLSALAAERDTLANQVEDCARECAKLAEEIQRLQAQLAETRASLYALEKGVWRDGYPDKISGSEWFIALLEDNRRVVLRSLPEEHSYDYTTADDTYLAAWKIKRWMQFPDANFIAPDTIVHTTVERIEQIKEEARNAALEEAAEVVARIKKPTIPPMFMGQTRAEAYDMGQHNACESKAELIRTLKSEPAPHPDCPECSGSGMRDSGGVQPWGDHIDAPCDCENAPAPRQSVQKAADNLAKGLRSAGYFIPSSIIFDVMVQKKSAS” here?
A: not soluble

Q: Which “soluble on expression in E. coli” value does the source give for “MAHHHHHHMQNSVGDVINLISKSEIRYEGKLHSINTEENTVSLSNVRIYGTEGRKGGGVEEVPPTEQLFEFIVFRGSDIKDLTVFRDSSSPQARDPAIVEVHAPARGRGGRAAAAAPAASATAASSAATRGSRSFYDEAQPYSRGGGGGRRGGYGAGRYNNNNGGGSNNSNSNRNHRGGYGGRGGSGNYRRNYRDYHTGQDFKPADIGATEKFEGDFDFAKCREEFEKKKSEFEKAKEDAKSHAKAYDKSSFFDTISCDQKEKNNMNRAEMRKADTETFGPEMVSSMRGFRRGRGGRGRYQQR” here?
A: not soluble

Q: With “MIKIAIPTSKGGLEDKVHESLVRAETFTLVEVKDGKIERIEVVENPHKNEPYGAGSKVAIFLVNNGVNILLTPMDCPKGKAILEAGGVKIIKVKQGKSVKEVIEAFQSSSSGYSLQ” as the sequence, how does the “soluble on expression in E. coli” value read?
A: soluble

Q: For “MGSDKIHHHHHHMPIITSYITQDDGTTTVVISGVELGNKETLLLDNGFDVEVDVSVIDPFQITGKQRRKIFALVKDIEEHTGQPMDYMRHMFIEFVRTYYGYDERISLSNCTRTQASQIIEATLDWTFYNDIPLSYKTSNLLKQDKSFLYWSTVNRNCVICGKPHADLAHYEAVGRGMNRNKMNHYDKHVLALCREHHNEQHAIGVKSFDDKYHLHDSWIKVDERLNKMLKGEKKE”, which “soluble on expression in E. coli” value is on record?
A: not soluble

Q: With “MCGIVGFIGEQDAKEILLKGLEKLEYRGYDSAGIAVQAENGVVVYKEKGRIAKLREIVDENVAASVGIGHTRWATHGVPSKVNAHPHQSTSKRFTLVHNGVIENYELVKKEYLQDVTFVSETDTEVIVQLMEQQVSTGLSVEEAFRNTLSLLHGSYAIGLLDAENPNMIYVAKNKSPLLVGVGDNFNVVASDAMAMLQVTDQFIELMDKEIVIVMKESITIKNLQGETIERAPFTAELDASDIEKGTYPHFMLKEIDEQPLVIRNIIQKYQDENGEIELDQDIRNAILDSDRIYIIACGTSYHAGLVGKQFIEKFAKMPVEVHVASEFSYNMPLLTERPFFIYISQSGETADSRAVLVQTNEMGHKALTITNVPGSTLSREADYTLPLYAGPEIAVASTKAYTAQLAVLSILAADIAKAKGEVLGFDLTHELGLVANAMIELCDQKEEMDALAKQFLATTRNCFFIGRSVDFYVGLEGALKLKEISYIQAEGFAGGELKHGTIALIENGTPVIALATQEHVNLGIRGNVKEVVARGANPCIISMKGLEMEGDSFVLPAVHEALAPLVAVIPLQLISYYAALHRECDVDKPRNLAKSVTVE” as the sequence, how does the “soluble on expression in E. coli” value read?
A: not soluble

Q: Which “soluble on expression in E. coli” value does the source give for “MGSDKIHHHHHHMNTVTIIGCGWFGLPLATQLVKQGIKVKASKRHPEDLVQLQQAGVDAYQLNLANVNSQAKNSSLFDADAIVINLPPGLRRGETDYLGYLTQLITLMGEHQYQKIIFISTTGVYPSLDQTVTEQDAAAFNDTSRTLLQAEAMFSAMKNSCIVRFSGLVGPKRHPGRFFAGKTDVSGANVAVNLVHLDDCIAAVSLILSRNDTLPIYNLAANAHPTRGEFYVAAAEHLGLTAPEFNQQQQPNKTIDGQLICHHLGFTYAFNNPFKMLDAC” here?
A: not soluble

Q: For “MGSDKIHHHHHHMKLPRFGVEEWLNVHEKNATYDIAGVSIAALSLEELFQLTQQDLNAFFQELGQKKMDYGWIEGSPQFKAEVCKLYKNIQAEQVLQTNGATGANMLALYALIEPEDHVISMYPTYQQLYDIPKSLGAQVDLWQIKEDSKWLPDLDELRQLIRPNTKMICINNAHNPTGAIMDEAYLKELVAIVESCGAYILSDEVYKTFASDKNIPAIVDLYDKGISVDSLSKAYSLPGIRVGWVASNKKVTAVLRDYRDYTMICAGVFDDMLASFALKHRQAIIQRNQEIVVDNLQILQDWLAKEPRAQAILPDHVSTSLIKLNVPMLIETFCLKLLSDYGVLVVPGNRFDIEGHVRLGYCGDTEILKAGLTRLSQCLRQFDEQAKIT”, which “soluble on expression in E. coli” value is on record?
A: not soluble

Q: With “MTEHVITSKCESPLLQAFVDNYLLLVKIAARIVGCRSRAEDVVQDAFFRLRSAPQATLTFKAQLSYLFQIVRNLAIDHYRKQALEQKYTGPEAEGLNVVIQGASPEISHINFTSLEKIADALSELPPRTRYAFEMYRLHGVPQKDIAKELGVSPTLVNFMIRDALIHCRKVNGTTAEA” as the sequence, how does the “soluble on expression in E. coli” value read?
A: not soluble

Q: Which “soluble on expression in E. coli” value does the source give for “MADSSSSSFFPDFGLLLYLEELNKEELNTFKLFLKETMEPEHGLTPWNEVKKARREDLANLMKKYYPGEKAWSVSLKIFGKMNLKDLCERAKEEINWSAQTIGPDDAKAGETQEDQEAVLGDGTEYRNRIKEKFCITWDKKSLAGKPEDFHHGIAEKDRKLLEHLFDVDVKTGAQPQIVVLQGAAGVGKTTLVRKAMLDWAEGSLYQQRFKYVFYLNGREINQLKERSFAQLISKDWPSTEGPIEEIMYQPSSLLFIIDSFDELNFAFEEPEFALCEDWTQEHPVSFLMSSLLRKVMLPEASLLVTTRLTTSKRLKQLLKNHHYVELLGMSEDAREEYIYQFFEDKRWAMKVFSSLKSNEMLFSMCQVPLVCWAACTCLKQQMEKGGDVTLTCQTTTALFTCYISSLFTPVDGGSPSLPNQAQLRRLCQVAAKGIWTMTYVFYRENLRRLGLTQSDVSSFMDSNIIQKDAEYENCYVFTHLHVQEFFAAMFYMLKGSWEAGNPSCQPFEDLKSLLQSTSYKDPHLTQMKCFLFGLLNEDRVKQLERTFNCKMSLKIKSKLLQCMEVLGNSDYSPSQLGFLELFHCLYETQDKAFISQAMRCFPKVAINICEKIHLLVSSFCLKHCRCLRTIRLSVTVVFEKKILKTSLPTNTWLKFITFPDGCQDISTSLIHNKNLMHLDLKGSDIGDNGVKSLCEALKHPECKLQTLRLESCNLTVFCCLNISNALIRSQSLIFLNLSTNNLLDDGVQLLCEALRHPKCYLERLSLESCGLTEAGCEYLSLALISNKRLTHLCLADNVLGDGGVKLMSDALQHAQCTLKSLVLRRCHFTSLSSEYLSTSLLHNKSLTHLDLGSNWLQDNGVKLLCDVFRHPSCNLQDLELMGCVLTNACCLDLASVILNNPNLRSLDLGNNDLQDDGVKILCDALRYPNCNIQRLGLEYCGLTSLCCQDLSSALICNKRLIKMNLTQNTLGYEGIVKLYKVLKSPKCKLQVLGQQDFQAAQGKLQQRRPLKPLRPGQVNRKLKTEKETQNCRLSRRRIGPLETADQSQAAGARPAAGLRLRFRGLGD” here?
A: soluble

Q: Which “soluble on expression in E. coli” value does the source give for “MNKDVSLGQPIVRYEDGKLFNTTDQYVTEFPLTIMVNGEEFATVICSPTNLEELVIGFLASEGAILKRDELKSVLIDDSKGFAHVELNKDLGDRFQYSTKRMIASCCGKSREFYFQNDAAIAKTSMSKITLTPIQIINMMTRLQSASHIYQETGGLHNAAISDGLTFFVHRQDIGRHNALDKLYGFCIQRHITVRDKVLIFSGRISSEILIKAAKIGVGVILSKSAPTTLAVTLANDLNITAVGFIRNGGFNIYSHPERIIDSEQ” here?
A: not soluble
